Source: patent publication US20200121801A1, “DRUG DELIVERY CONJUGATES CONTAINING UNNATURAL AMINO ACIDS AND METHODS FOR USING” (priority 2012, published 2020)

Legend:
[1] = biological target: T1, folate receptors (FRs) on KB cells (Homo sapiens, UniProt P15328); experiment: Relative affinity assay (3H-folic acid competition) on KB cells; assay type: binding; conditions: KB cells, 1 h at 37° C.
T1 construct: FR-positive KB cells are heavily seeded into 24-well cell culture plates; endogenous in cells; host or cells: KB cells
Protocol: METHOD. Relative Affinity Assay. The affinity for folate receptors (FRs) relative to folate is determined according to a previously described method (Westerhof, G. R., J. H. Schornagel, et al. (1995) Mol. Pharm. 48: 459-471) with slight modification. Briefly, FR-positive KB cells are heavily seeded into 24-well cell culture plates and allowed to adhere to the plastic for 18 h. Spent incubation media is replaced in designated wells with folate-free RPMI (FFRPMI) supplemented with 100 nM ^3H-folic acid in the absence and presence of increasing concentrations of test article or folic acid. Cells are incubated for 60 min at 37° C. and then rinsed 3 times with PBS, pH 7.4. Five hundred microliters of 1% SDS in PBS, pH 7.4, is added per well. Cell lysates are then collected and added to individual vials containing 5 mL of scintillation cocktail, and then counted for radioactivity. Negative control tubes contain only the ^3H-folic acid in FFRPMI (no competitor). Positive control tubes contain a final concentration of 1 mM folic acid, and CPMs measured in these samples (representing non-specific binding of label) are subtracted from all samples.

[2] = test system: adjuvant-induced arthritis; experiment: Adjuvant-induced arthritis (AIA) model
Protocol: METHOD. Adjuvant-Induced Arthritis (AIA) Model. Female Lewis rats are fed a folate-deficient diet (Harlan Teklad, Indianapolis, Ind.) for 9-10 days prior to arthritis induction. The adjuvant-induced arthritis (AIA) is induced by intradermal inoculation (at the base of tail) of 0.4-0.5 mg of heat-killed Mycobacteria butyricum (BD Diagnostic Systems, Sparks, Md.) in 100 μL light mineral oil (Sigma). Ten days after arthritis induction, paw edema (degree of arthritis) in rats is assessed using a modified arthritis scoring system: 0=no arthritis; 1=swelling in one type of joint; 2=swelling in two types of joint; 3=swelling in three types of joint; 4=swelling of the entire paw. A total score for each rat is calculated by summarizing the scores for each of the four paws, giving a maximum score of 16 for each rat. On Day 10 post arthritis induction, rats with a total arthritis score of […] were removed from the study and the remaining rats are distributed evenly across the control and treatment groups (n=5 for all groups except that n=2-3 for healthy controls). All treatments are started on Day 10 unless indicated otherwise. Rat paws are also evaluated radiographically to assess and determine bone damage.
EXAMPLE. […] Starting 9 days after induction, rats with developing AIA are distributed according to arthritis scores into three groups (n=5): (1) the untreated AIA control, (2) the EC1669 treated group, and (3) the EC1669 plus EC0923 competition group. All treatments last for 2 consecutive weeks. The animals in the AIA control group are left untreated. The animals in the EC1669 treatment group are given twice-a-week subcutaneous doses of EC1669 at a dosage of 375 nmol/kg. The animals in the EC1669 plus EC0923 group are given twice-a-week subcutaneous doses of EC1669 at a dosage of 375 nmol/kg in conjunction to EC0923 at a dosage of 187.5 μmol/kg.
EXAMPLE. […] CellCept is a prodrug of mycophenolic acid, an immunosuppressant drug used to prevent organ rejection in transplantation. CellCept is activated in vivo and releases its active product that can inhibit T cell proliferation and interfere with leukocyte adhesion to endothelial cells. To test the combination effect of EC1669 and CellCept, rats with developing AIA are distributed according to arthritis scores into four groups (n=5): (1) the untreated AIA control, (2) the EC1669 treated group, (3) the CellCept treated group, and (4) the EC1669 and CellCept combination group. All treatments start on day 9 after AIA induction and last 2 consecutive weeks. The animals in the AIA control group are untreated. The animals in the EC1669 treatment group are given weekly subcutaneous doses of EC1669 at a dosage of 1000 nmol/kg. The animals in the CellCept treatment group are given daily oral doses of CellCept at a dosage of 30 mg/kg, 5 days per week. The animals in the EC1669 and CellCept combination treatment group are given weekly subcutaneous doses of EC1669 at a dosage of 1000 nmol/kg and daily oral doses of CellCept at a dosage of 30 mg/kg, 5 days per week.

[3] = Plasma clearance after s.c. administration; assay type: in vivo, Lewis rats
Protocol: METHOD. Plasma clearance. In vivo studies include a minimum of 3 test animals, such as rats, per time point. Illustratively, female Lewis rats with jugular vein catheters (Harlan, regular rodent diet) are given a single subcutaneous injection of test compound, such as EC1669 at 500 nmol/kg. Whole blood samples (300 μL) are collected at the following time points: 1 min, 10 min, 30 min, 1 h, 2 h, 3 h, 4 h, 8 h, and 12 h after injection. The blood samples are placed into anti-coagulant tubes containing 1.7 mg/mL of K3-EDTA and 0.35 mg/mL of N-maleoyl-beta-alanine (0.35 mg/mL) in a 0.15% acetic acid solution. Plasma samples are obtained by centrifugation for 3 min at ˜2,000 g and stored at −80° C. The amounts of test compound in the plasma and any metabolites, such as EC1669 and its two active metabolites aminopterin (AMT) and AMT hydrazide (EC0470), respectively, are quantified by LC-MS/MS.

[4] = test system: experimental autoimmune uveitis; experiment: Experimental autoimmune uveitis (EAU) model
Protocol: Animal Experimental Autoimmune Uveitis Model. Experimental autoimmune uveitis (EAU) is induced in female Lewis rats maintained on a folate-deficient diet (Harlan Teklad, Indianapolis, Ind.). On Day 0, the animals are immunized subcutaneously with 25 μg of bovine S-Ag PDSAg peptide formulated with Freund's incomplete adjuvant containing 0.5 mg of grounded M. Tuberculosis H37Ra. Purified pertussis toxin (PT) is given at a dosage of 1 μg per animal on the same day via intraperitoneal injection. The severity of uveitis in each eye is assessed by a qualitative visual score system: 0=No disease, eye is translucent and reflects light (red reflex); 0.5 (trace)=Dilated blood vessels in the iris, 1=Engorged blood vessels in iris, abnormal pupil contraction; 2=Hazy anterior chamber, decreased red reflex; 3=Moderately opaque anterior chamber, but pupil still visible, dull red reflex; and 4=Opaque anterior chamber and obscured pupil, red reflex absent, proptosis. This assessment yields a maximum uveitis score of 8 per animal.
All treatments start on day 8 after EAU induction. The animals in the EAU control group are untreated. […] The uveitis score and animal body weight are recorded for each animal at predetermined frequencies. The clinical severity of EAU is monitored on a daily basis using an ophthalmoscope and graded on a scale of 0 to 4 per eye with a maximum possible score of 8 per animal. […]

[5] = 375 nmol/kg s.c. twice-a-week, 2 weeks

T1 sequence (P15328 25-234): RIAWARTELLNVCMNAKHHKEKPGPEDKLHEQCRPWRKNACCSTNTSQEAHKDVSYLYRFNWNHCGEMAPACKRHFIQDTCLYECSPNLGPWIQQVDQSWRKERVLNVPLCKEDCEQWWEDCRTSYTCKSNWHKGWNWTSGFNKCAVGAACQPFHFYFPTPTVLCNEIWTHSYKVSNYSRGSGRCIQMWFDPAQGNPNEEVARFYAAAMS

Q: For N=c1[nH]c(N)nc2ncc(CNc3ccc(C(=O)N[C@@H](CCC(=O)NNC(=O)OCCSSC[C@@H](NC(=O)[C@H](CCC(=O)NC[C@H](O)[C@@H](O)[C@H](O)[C@H](O)CO)NC(=O)[C@@H](CCC(=O)O)NC(=O)[C@H](CCC(=O)NC[C@H](O)[C@@H](O)[C@H](O)[C@H](O)CO)NC(=O)[C@@H](CCC(=O)O)NC(=O)[C@H](CCC(=O)NC[C@H](O)[C@@H](O)[C@H](O)[C@H](O)CO)NC(=O)CC[C@H](NC(=O)c4ccc(NCc5cnc6nc(N)[nH]c(=O)c6n5)cc4)C(=O)O)C(=O)O)C(=O)O)cc3)nc12 [EC1669], which “relative affinity (normalized against folic acid, set to 1)” value [1] is on record?
A: Its value is 0.53.

Q: What about the “reduction in paw swelling” value ([2]; 250 nmol/kg, biw) of the same molecule?
A: The value was 64%.

Q: And the “whole animal toxicity (body weight)” value ([2]; 375 nmol/kg)?
A: The value was “does not exhibit whole animal toxicity”.

Q: And the “alleviation of bone damage compared to control” value [2, 5]?
A: Its value is ~80%.

Q: And the “alleviation of paw swelling compared to control” value [2, 5]?
A: Its value is ~80%.

Q: What about the “reduction in paw swelling” value ([2]; 500 nmol/kg, biw) of the same molecule?
A: The value was 81%.

Q: And the “reduction in paw swelling” value ([2]; 1000 nmol/kg, siw)?
A: The value was 44%.

Q: What about the “anti-arthritic activity with folate competitor EC0923” value ([2]; EC0923 187.5 μmol/kg co-dosed) of the same molecule?
A: Its value is “competable (blocked)”.

Q: And the half-life ([3]; female, Lewis, rat, in vivo, sc, EC1669 500 nmol/kg s.c., blood, read-out: elimination half-life)?
A: The half-life was ~37 min.

Q: And the Cmax ([3]; female, Lewis, rat, in vivo, sc, EC1669 500 nmol/kg s.c., plasma, read-out: Cmax)?
A: The Cmax was ~472 nM.

Q: And the AUC ([3]; female, Lewis, rat, in vivo, sc, EC1669 500 nmol/kg s.c., read-out: area-under-the-curve (AUC) (converted))?
A: The AUC was 0.867 µM·h.

Q: And the “% Released: AMT” value ([3]; plasma, 12 h collection period)?
A: The value was 9.5%.

Q: What about the “% Released: EC0470” value ([3]; plasma, 12 h collection period) of the same molecule?
A: Its value is 6.3%.

Q: And the “% Released: Total (AMT plus EC0470)” value ([3]; plasma, 12 h collection period, based on AUC)?
A: Its value is ~15.8%.

Q: What about the “AMT/EC0470 Ratio” value ([3]; rat, in vivo) of the same molecule?
A: Its value is 1.51.

Q: What about the “symptoms of EAU (uveitis score)” value ([4]; 250 nmol/kg s.c. q2d, five doses from day 8) of the same molecule?
A: Its value is “effectively reduces the symptoms of EAU”.

Q: What about the “treatment-related weight loss / whole animal toxicity” value ([4]; rat, in vivo) of the same molecule?
A: Its value is “does not cause whole animal toxicity”.
